Data: patent US20110123534A1 (ERASMUS UNIVERSITY MEDICAL CENTER ROTTERDAM, published 2011)

Biological target: Rac1 (endogenous in HUVEC lysate) (human, UniProt P63000 1-189)
Experiment: co-immunoprecipitation with anti-FGD5 antibody from lysates of FGD5 overexpressing HUVECs, western blot
Procedure: GTP-RhoA, Rac1, and cdc42 activation levels were measured using the G-lisa detection system (Tebu-Bio, The Netherlands). For FGD5-protein complex co-immunoprecipitation, magnetic beads (Dynabeads, Invitrogen, The Netherlands) were coated and cross-linked with 2.5 μg anti-FGD5 antibody (Bioscience, The Netherlands) before immunoprecipitation overnight at 4° C. with protein cell lysates of transfected HUVECs (50 μg total protein of a volume of 100 μl incubation buffer). Beads were washed and the protein samples were eluted with eluation buffer (Invitrogen, The Netherlands) before analysis by western blot.

B1: FYVE, RhoGEF and PH domain-containing 5 (FGD5), human, overexpressed in HUVECs by adenovirus (Ad-FGD5) (other)
chain: MFRGPKPPIAPKPRLTAPNEWRASVYLNDSLNKCSNGRLPCVDRGLDEGPRSIPKCSESETDEDYIVVPRVPLREDEPKDEGSVGNKALVSPESSAEEEEEREEGGEACGLEGTGAGEDSVAPAAPGAGALSREGEEGTDLALEDEGEGCADEPGTLEQVSRSEEEEKLVQPHRECSLEDSGPWAGEGVFQSDLLLPHIHGEDQEPPDTPGEAEEDDEEGCASTDPAGADEGSGPDRPTEDMGQDAEDTSEEPPEKEELAGVQEAETATDCPEVLEEGCEEATGVTGGEQVDLSEPPDHEKKTNQEVAAATLEDHAQDESAEESCQIVPFENDCMEDFVTSLTGSPYEFFPTESTSFCSESCSPLSESAKGLESEQAPKLGLRAEENPMVGALCGQCGSLQGGAAEGPAAPDVVVVLEEEALDDALANPYVMGVGLPGQAAPGEGGQAASDALGGYGSKEELNCEAEGGLVPADRKNTSTRVRPHSGKVAGYVPETVPEETGPEAGSSAPGIGGAAEEVGKTLLSLEGKPLEASRALPAKPRAFTLYPRSFSVEGREIPVSVYQEPEGSGLDDHRIKRKEDNLSLSCVIGSSGSFSQRNHLPSSGTSTPSSMVDIPPPFDLACITKKPITKSSPSLLIESDSPDKYKKKKSSFKRFLALTFKKKTENKLHVDVNVSSSRSSSESSYHGPSRILEVDRRSLSNSPQLKSRTGKLRASESPSSLIFYRDGKRKGVPFSRTVSRVESFEDRSRPPFLPLPLTKPRSISFPSADTSDYENIPAMNSDYENIQIPPRRPARAGAFTKLFEDQSRALSTANENDGYVDMSSFNAFESKQQSADQDAESAYTEPYKVCPISSAAPKEDLTSDEEQRSSEEEDSASRDPSVTHKVEGQSRALVIAQELLSSEKAYVEMLQHLNLDFHGAVMRALDDMDHEGRDTLAREELRQGLSELPAIHDLHQGILEELEERLSNWESQQKVADVFLAREQGFDHHATHILQFDRYLGLLSENCLHSPRLAAAVREFEQSVQGGSQTAKHRLLRVVQRLFQYQVLLTDYLNNLCPDSAEYDNTQGALSLISKVTDRANDSMEQGENLQKLVHIEHSVRGQGDLLQPGREFLKEGTLMKVTGKNRRPRHLFLMNDVLLYTYPQKDGKYRLKNTLAVANMKVSRPVMEKVPYALKIETSESCLMLSASSCAERDEWYGCLSRALPEDYKAQALAAFHHSVEIRERLGVSLGERPPTLVPVTHVMMCMNCGCDFSLTLRRHHCHACGKIVCRNCSRNKYPLKYLKDRMAKVCDGCFGELKKRGRAVPGLMRERPVSMSFPLSSPRFSGSAFSSVFQSINPSTFKKQKKVPSALTEVAASGEGSAISGYLSRCKRGKRHWKKLWFVIKGKVLYTYMASEDKVALESMPLLGFTIAPEKEEGSSEVGPIFHLYHKKTLFYSFKAEDTNSAQRWIEAMEDASVL
notes: Guanine-nucleotide exchange factor; Made with the pAd/CMV/V5 gateway system; also called Ad-FGD5 transgene product
B1: no binding.
